Laboratory results taken from paper PMC3202633.

Target: GFP-β1-integrin (UniProt P05556)
Assay: co-IP; GFP-Trap capture of GFP-β1-integrin (or GFP alone) from MEFs spread on 50K-coated dishes, unstimulated or stimulated with H/0 for 10 min, cross-linked with DTBP; western blotting

Sequence of UniProt P05556 (P05556 21-798): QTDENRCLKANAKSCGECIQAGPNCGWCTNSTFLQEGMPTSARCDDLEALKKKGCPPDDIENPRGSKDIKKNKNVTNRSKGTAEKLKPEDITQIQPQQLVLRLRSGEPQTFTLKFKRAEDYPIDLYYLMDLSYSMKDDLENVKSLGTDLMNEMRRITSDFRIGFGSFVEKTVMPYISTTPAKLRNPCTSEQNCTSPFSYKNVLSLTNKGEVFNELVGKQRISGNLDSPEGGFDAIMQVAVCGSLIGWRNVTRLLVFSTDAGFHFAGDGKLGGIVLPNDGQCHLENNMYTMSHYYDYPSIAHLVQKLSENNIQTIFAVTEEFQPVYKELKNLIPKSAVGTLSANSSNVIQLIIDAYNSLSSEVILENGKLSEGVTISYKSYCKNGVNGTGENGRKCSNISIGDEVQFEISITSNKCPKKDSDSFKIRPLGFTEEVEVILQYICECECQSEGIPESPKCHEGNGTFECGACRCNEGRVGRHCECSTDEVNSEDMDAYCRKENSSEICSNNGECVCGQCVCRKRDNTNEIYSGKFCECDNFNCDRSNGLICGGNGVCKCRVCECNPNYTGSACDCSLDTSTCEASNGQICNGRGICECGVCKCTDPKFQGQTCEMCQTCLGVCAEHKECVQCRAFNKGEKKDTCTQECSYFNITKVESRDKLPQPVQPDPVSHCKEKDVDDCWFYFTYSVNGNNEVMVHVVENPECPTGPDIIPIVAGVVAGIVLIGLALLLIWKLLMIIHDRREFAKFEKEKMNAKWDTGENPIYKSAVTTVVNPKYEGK
Sequence of RhoGDI (Q99PT1 whole entry): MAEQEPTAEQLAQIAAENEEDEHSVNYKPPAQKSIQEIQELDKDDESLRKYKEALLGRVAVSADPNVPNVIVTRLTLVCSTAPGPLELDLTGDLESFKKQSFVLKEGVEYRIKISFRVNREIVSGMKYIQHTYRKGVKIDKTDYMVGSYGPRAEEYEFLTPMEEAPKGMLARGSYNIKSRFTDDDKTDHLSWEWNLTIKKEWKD

reduction in bound RhoGDI after 10 min H/0 stimulation, against unstimulated cells: 46%
Substance: RhoGDI (from UniProt Q99PT1 1-204) (natural protein)
